Values belong to the binder of their own block, whether it stands above or below them.
Key:
[1] = molecular target: T1, human MICB expressed on transduced cells (human, UniProt Q29980 23-382); experiment: cell-based or functional assay
T1 chain: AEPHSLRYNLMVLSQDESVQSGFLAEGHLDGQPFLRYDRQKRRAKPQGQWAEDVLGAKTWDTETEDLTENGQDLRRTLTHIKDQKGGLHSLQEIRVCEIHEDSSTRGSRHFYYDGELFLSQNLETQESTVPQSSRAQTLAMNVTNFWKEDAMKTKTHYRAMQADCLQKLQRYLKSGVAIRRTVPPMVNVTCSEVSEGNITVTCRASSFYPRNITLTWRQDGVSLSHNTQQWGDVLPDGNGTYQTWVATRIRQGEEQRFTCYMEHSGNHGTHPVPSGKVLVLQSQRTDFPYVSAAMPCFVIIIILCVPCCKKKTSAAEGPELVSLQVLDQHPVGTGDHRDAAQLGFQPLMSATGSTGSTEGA

[2] = molecular target: T2, human MICA/B endogenously expressed on 786-O cells (MICA allele *008) (human, UniProt Q29983 24-331); experiment: cell-based or functional assay
T2 chain: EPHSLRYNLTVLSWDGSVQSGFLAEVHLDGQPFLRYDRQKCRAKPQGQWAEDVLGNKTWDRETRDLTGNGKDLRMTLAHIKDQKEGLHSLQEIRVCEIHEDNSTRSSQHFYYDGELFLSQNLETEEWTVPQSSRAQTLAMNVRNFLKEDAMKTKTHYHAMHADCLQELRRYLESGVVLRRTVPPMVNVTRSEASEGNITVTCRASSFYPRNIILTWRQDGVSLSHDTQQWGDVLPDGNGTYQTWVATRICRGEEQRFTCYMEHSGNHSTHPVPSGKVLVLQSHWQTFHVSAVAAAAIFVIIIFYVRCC

[3] = molecular target: T3, human MICA/B endogenously expressed on HeLa cells (MICA allele *008) (human, UniProt Q29983 24-331); experiment: cell-based or functional assay
T3 chain: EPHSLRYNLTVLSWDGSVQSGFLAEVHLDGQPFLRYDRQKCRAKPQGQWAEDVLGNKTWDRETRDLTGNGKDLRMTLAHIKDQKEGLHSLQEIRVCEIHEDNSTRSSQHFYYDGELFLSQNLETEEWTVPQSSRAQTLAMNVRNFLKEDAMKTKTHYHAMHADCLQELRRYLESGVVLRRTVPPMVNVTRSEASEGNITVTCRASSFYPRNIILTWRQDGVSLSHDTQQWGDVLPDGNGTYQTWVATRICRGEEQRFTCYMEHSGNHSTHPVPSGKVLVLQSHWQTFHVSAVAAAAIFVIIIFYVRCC

[4] = molecular target: T4, human MICA/B endogenously expressed on RPMI-8226 cells (human, UniProt Q29983 24-383); experiment: flow cytometry, tumor cells with endogenous MICA/B
T4 construct: whole, on cells
T4 sequence (looked up): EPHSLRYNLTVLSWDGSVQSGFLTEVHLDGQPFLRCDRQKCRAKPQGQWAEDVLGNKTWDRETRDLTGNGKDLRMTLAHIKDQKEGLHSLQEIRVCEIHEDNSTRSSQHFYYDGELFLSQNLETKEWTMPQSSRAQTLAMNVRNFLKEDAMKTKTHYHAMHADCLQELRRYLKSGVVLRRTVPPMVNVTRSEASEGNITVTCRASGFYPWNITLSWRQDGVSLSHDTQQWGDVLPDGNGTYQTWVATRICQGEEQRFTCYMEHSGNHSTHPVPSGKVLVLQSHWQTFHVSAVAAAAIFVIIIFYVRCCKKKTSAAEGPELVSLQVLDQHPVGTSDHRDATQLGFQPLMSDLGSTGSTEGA
Protocol: Serial dilutions of MICA.36-IgG1-NF-G236A mAb were incubated with CHO cells transduced with human MICA/B common alleles or human tumor cell lines that endogenously express MICA/B. Cells were then washed twice, and cell bound antibodies were detected using a secondary anti-human antibody conjugated with a fluorophore. Flow cytometric analyses were performed using a FACSCantoII or FACS Fortessa X-20 flow cytometer. The geometric mean fluorescence intensity of MICA.36-IgG1-NF-G236A mAb bound to cells was determined using FlowJo analysis software. Dose-response curves were generated and EC50s calculated using Prism software.
MICA.36-IgG1-NF-G236A bound to endogenously expressed MICA/B on a variety of human tumor cell lines (FIG. 8B).

[5] = molecular target: T2, human MICA/B endogenously expressed on …; experiment: flow cytometry, tumor cells with endogenous MICA/B (column Binding EC50)
[6] = molecular target: T3, human MICA/B endogenously expressed on …; experiment: as above
[7] = molecular target: T5, recombinant soluble human MICA*004 antigen (human, UniProt Q29983 24-307); experiment: SPR (Biacore T200, 37 C), antibody captured on anti-human Fc, antigen 100 and 10 nM
T5 construct: also called huIMICA-his allele *004
T5 chain: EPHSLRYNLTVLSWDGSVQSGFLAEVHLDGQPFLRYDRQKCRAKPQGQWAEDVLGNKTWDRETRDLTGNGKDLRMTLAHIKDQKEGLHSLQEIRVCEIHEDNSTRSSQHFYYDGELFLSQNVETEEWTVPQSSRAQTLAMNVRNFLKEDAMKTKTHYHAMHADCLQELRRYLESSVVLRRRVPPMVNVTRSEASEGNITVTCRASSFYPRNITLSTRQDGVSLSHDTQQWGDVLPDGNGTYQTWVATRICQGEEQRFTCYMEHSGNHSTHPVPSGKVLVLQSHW
Protocol: (§1) Anti-MICA/B antibodies were captured to α-human Fc surfaces. MICA allele antigens were injected at high and low nanomolar concentrations (500 nM and 50 nM, except indicated otherwise). The results for antibodies MICA.36 and MICA.38 (MICA.2 with a Ser inserted between residues 95 and 96 in the light chain) are shown in Table 2 below.

[8] = molecular target: T6, recombinant soluble human MICA*008 antigen (human, UniProt Q29983 24-307); experiment: as above
T6 construct: also called huIMICA-his allele *008; recombinant soluble MICA (allele 8)
T6 chain: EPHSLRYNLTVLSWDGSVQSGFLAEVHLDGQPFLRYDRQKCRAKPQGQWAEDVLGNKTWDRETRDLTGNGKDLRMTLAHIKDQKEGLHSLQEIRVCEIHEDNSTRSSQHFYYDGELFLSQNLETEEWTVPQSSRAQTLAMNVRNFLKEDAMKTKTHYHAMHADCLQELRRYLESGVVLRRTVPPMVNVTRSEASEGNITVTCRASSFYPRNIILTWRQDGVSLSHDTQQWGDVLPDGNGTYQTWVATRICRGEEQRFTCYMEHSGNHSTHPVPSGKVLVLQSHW
Protocol: as §1

[9] = molecular target: T7, recombinant soluble human MICA*009 antigen (human, UniProt Q29983 24-307); experiment: as above
T7 construct: also called huIMICA-his allele *009
T7 chain: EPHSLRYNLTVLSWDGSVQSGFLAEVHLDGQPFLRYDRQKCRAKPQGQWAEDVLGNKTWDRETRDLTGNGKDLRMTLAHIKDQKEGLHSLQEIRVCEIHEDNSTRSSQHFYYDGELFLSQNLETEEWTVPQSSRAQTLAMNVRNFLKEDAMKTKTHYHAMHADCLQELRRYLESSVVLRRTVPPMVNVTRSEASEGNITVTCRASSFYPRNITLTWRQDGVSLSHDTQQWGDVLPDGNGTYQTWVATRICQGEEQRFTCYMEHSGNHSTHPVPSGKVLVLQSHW
Protocol: as §1

[10] = molecular target: T8, recombinant soluble human MICA*002 antigen (human, UniProt Q29983 24-307); experiment: SPR (Biacore T200, 37 C), antibody captured on anti-human Fc, antigen 500 and 50 nM
T8 construct: also called huIMICA-his allele *002
T8 chain: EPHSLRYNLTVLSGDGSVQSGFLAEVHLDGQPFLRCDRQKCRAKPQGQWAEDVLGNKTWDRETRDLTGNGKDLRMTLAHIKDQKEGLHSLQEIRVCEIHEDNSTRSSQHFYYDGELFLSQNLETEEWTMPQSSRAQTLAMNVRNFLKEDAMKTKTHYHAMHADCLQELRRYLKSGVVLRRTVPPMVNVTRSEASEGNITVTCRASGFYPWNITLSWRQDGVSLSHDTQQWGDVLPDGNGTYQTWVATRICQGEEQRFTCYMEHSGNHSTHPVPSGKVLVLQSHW
Protocol: as §1

[11] = molecular target: T5, recombinant soluble human MICA*004 …; experiment: as above
Protocol: as §1

[12] = molecular target: T6, recombinant soluble human MICA*008 …; experiment: as above
Protocol: as §1

[13] = molecular target: T7, recombinant soluble human MICA*009 …; experiment: as above
Protocol: as §1

[14] = molecular target: T5, recombinant soluble human MICA*004 …; experiment: SPR (Biacore T200, 37 C), antibody captured on anti-human Fc, range over both antigen concentration sets
Protocol: as §1

[15] = molecular target: T6, recombinant soluble human MICA*008 …; experiment: as above
Protocol: as §1

[16] = molecular target: T7, recombinant soluble human MICA*009 …; experiment: as above
Protocol: as §1

OT-I CD8+ T cell proliferation (antigen cross-presentation) EC50 [1]: 1.6 nM
antibody dependent cellular phagocytosis (ADCP) EC50 [1]: 10.7 nM
Fold increase in surface MICA [2]: 1.47 fold
MICA retention EC50 [2]: 0.057 nM
Reduction in sMICA EC50 [2]: 0.14 nM
Fold increase in surface MICA [3]: 1.43 fold
MICA retention EC50 [3]: 0.032 nM
Reduction in sMICA EC50 [3]: 0.1 nM
EC50 [4]: 3.9 nM
EC50 [5]: 1.37 nM
EC50 [6]: 1.76 nM
B1: MICA.36-IgG1-NF-G236A (antibody)
heavy: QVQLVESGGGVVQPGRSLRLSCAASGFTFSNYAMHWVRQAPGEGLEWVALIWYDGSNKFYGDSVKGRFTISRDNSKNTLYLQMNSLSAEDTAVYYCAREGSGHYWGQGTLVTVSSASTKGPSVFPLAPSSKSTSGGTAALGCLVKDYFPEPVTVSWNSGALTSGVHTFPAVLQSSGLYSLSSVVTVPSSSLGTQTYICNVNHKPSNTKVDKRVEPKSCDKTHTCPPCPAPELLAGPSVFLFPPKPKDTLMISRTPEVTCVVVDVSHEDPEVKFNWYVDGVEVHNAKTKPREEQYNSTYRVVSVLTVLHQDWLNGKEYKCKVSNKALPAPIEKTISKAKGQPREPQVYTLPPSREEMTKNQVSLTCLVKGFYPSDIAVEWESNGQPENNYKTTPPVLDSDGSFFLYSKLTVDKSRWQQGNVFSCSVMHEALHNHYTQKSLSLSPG
light: AIQLTQSPSSLSASVGDRVTITCRASQGISSALAWYQQKPGKVPKSLIYDASSLESGVPSRFSGSGSGTDFTLTISSLQPEDFATYYCQQFNSYPITFGQGTRLEIKRTVAAPSVFIFPPSDEQLKSGTASVVCLLNNFYPREAKVQWKVDNALQSGNSQESVTEQDSKDSTYSLSSTLTLSKADYEKHKVYACEVTHQGLSSPVTKSFNRGEC
modifications: non-fucosylated (expressed in FUT8-knock-out CHO cells)
notes: Human IgG1 with G236A (EU numbering); also called MICA.36 NF G236A; MICA.36-NF-G236A

koff [7]: 0.000637 s⁻¹
kon [7]: 46200 M⁻¹ s⁻¹
koff [8]: 0.000606 s⁻¹
kon [8]: 120000 M⁻¹ s⁻¹
koff [9]: 0.000642 s⁻¹
kon [9]: 54100 M⁻¹ s⁻¹
Kd [10]: > 250 nM
koff [10]: 0.0161 s⁻¹
kon [10]: 28600 M⁻¹ s⁻¹
koff [11]: 0.000591 s⁻¹
kon [11]: 95200 M⁻¹ s⁻¹
koff [12]: 0.000565 s⁻¹
kon [12]: 140000 M⁻¹ s⁻¹
koff [13]: 0.000603 s⁻¹
kon [13]: 70100 M⁻¹ s⁻¹
Kd [14]: 6.2 to 13.8 nM
Kd [15]: 4 to 5.1 nM
Kd [16]: 8.6 to 11.9 nM
B2: MICA.36 hIgG1 (antibody)
heavy: not shown
light: AIQLTQSPSSLSASVGDRVTITCRASQGISSALAWYQQKPGKVPKSLIYDASSLESGVPSRFSGSGSGTDFTLTISSLQPEDFATYYCQQFNSYPITFGQGTRLEIKRTVAAPSVFIFPPSDEQLKSGTASVVCLLNNFYPREAKVQWKVDNALQSGNSQESVTEQDSKDSTYSLSSTLTLSKADYEKHKVYACEVTHQGLSSPVTKSFNRGEC
notes: Recombinant form of hybridoma 19G6 with wild type human IgG1 (236G), fucosylated; also called MICA.36hIgGl; MICA.36 IgG1
